The source of these data is publication PMC6775958 (Pharmacology Research & Perspectives, 2019).

Series [1] in a line: Pharmacokinetics of RHI in anesthetized swine. The series is classed as in vivo. To be noted: 20 IU RHI, mean ± SEM; for Cmax (peak serum concentration), Non-transformed / Tmax (time to peak serum concentration): non-compartmental.
The next series in a line: Euglycemic glucose clamp. As to conditions: 20 IU RHI. In kind it is in vivo, swine.
For series [2] the following is noted: conscious dogs, cited from earlier work; for Bioavailability: pilot experiments.
Where [3] appears, read: Subcutaneous, natural logarithmic scale, n = 9.

“And” between values parts separate entries of the source, which are not always exact repeats. Identical values can stand only once. Like-named read-outs stand apart in the source and are kept apart here.

In the case of recombinant human insulin [RHI], the “Cmax (peak serum concentration), Non-transformed” value in series [1] (Intrajejunal wall (ODP), n = 8) was 0.517 ± 0.109 nM; in series [1] (Subcutaneous, n = 9), 0.342 ± 0.05 nM. Also, the “Tmax (time to peak serum concentration)” value is 2.32 ± 0.65 h and 2.32 ± 0.7 h in series [1] (Intrajejunal wall (ODP), n = 8); 4 ± 0.517 h and 3.78 ± 0.4 h in series [1] (Subcutaneous, n = 9). In addition, the “Area under the insulin concentration curve” value in series [1] (ODP (jejunal wall), n = 8 (abstract)) came to 83 ± 18 nmol/L/min; in series [1] (Subcutaneous, n = 9 (abstract)), 81 ± 10 nmol/L/min. In addition, in series [1] (setting [3]), the “AUClast, Log-transformed” value is reported as 2178 ± 49 pmol/L·min. Also, the “Cmax, Log-transformed” value in series [1] (setting [3]) came out at 5.74 ± 0.17 pmol/L. In addition, the “Biological activity of RHI delivered by the ODP (increased demand for glucose delivery to maintain the euglycemic clamp)” value in the series “Euglycemic glucose clamp” (ODP (jejunal wall), anesthetized swine) is reported as “confirmed”. For the same substance, the “Mean AUClast of glucose infusion rates” value in the series “Euglycemic glucose clamp” (Subcutaneous, euglycemic clamp, swine, 0-420 min, mean ± SEM, n = 9) was 106 ± 10 g/min^2.
As for human immunoglobulin G [human IgG], in series [2] (oral ODP vs subcutaneous), the “Cmax after oral than after subcutaneous administration” value is given as “higher” and the “Tmax after oral than after subcutaneous administration” value is listed as “shorter”. Besides, the Bioavailability in series [2] (oral delivery by the ODP) is 60%. In addition, the Bioavailability in series [2] (subcutaneous injections) is on record as 50%.
